Reference: paper PMC11046646, “Tight-packing of large pilin subunits provides distinct structural and mechanical properties for the Myxococcus xanthus type IVa pilus” (Proceedings of the National Academy of Sciences of the …, 2024)

Target: the molecule itself
Assay: cryo-EM structure; T4aP^Mx filaments purified from the hyperpiliated ΔpilT strain; helical reconstruction, twist 100.7°, rise 10 Å per subunit, 3.0 Å

B1: major pilin PilA of Myxococcus xanthus (mature PilA, MXAN_5783) (natural protein, UniProt Q59589 13-220, looked up)
chain: FTLIELMIVVAIIGILAAIAIPNFIKFQARSKQSEAKTNLKALYTAQKSFFSEKDRYSDFANEIGFAPERGNRYGYRVSAAAGDCEVRNAADLPVPAAGVPCISNDSFRFGANSAIDDPTPVVARFVPQGAAGWNTTLGVQPTIADCPNCNFFAGARGNADNEATFDDWVIAGFEGSGQVGPCSEAGNVASGTPYNTRNDVACDGAAQ
notes: PilA, major type IVa pilin of Myxococcus xanthus, MXAN_5783; mature pilin of 208 aa after removal of the type III signal peptide by PilD; numbers count on: the mature protein; Assembled as the T4aP filament of thousands of copies; Disulfide bridges C95/C102 and C183/C203; the authors speculate that surface-exposed C150 is post-translationally modified; also called PilA^WT; Mx PilA; source: …
B1: binds.
